Results published in patent publication US7387779B2, “Anti-angiogenic proteins and fragments and methods of use thereof” (Beth Israel Deaconess Medical Center, priority 1998, dated 2008).

Experiments:
[1] = system: A-498 (renal carcinoma) cells; experiment: Proliferation of control cells, 3H-thymidine incorporation; type: cell-based; conditions: endostatin 0.1-10 μg/ml
Description: C-PAE cells were grown to confluence in DMEM with 10% fetal calf serum (FCS) and kept contact inhibited for 48 hours. Control cells were 786-O (renal carcinoma) cells, PC-3 cells, HPEC cells, and A-498 (renal carcinoma) cells. Cells were harvested with trypsinization (Life Technologies/Gibco BRL, Gaithersburg, Md., USA) at 37° C. for five minutes. A suspension of 12,500 cells in DMEM with 1% FCS was added to each well of a 24-well plate coated with 10 μg/ml fibronectin. The cells were incubated for 24 hours at 37° C. with 5% CO2 and 95% humidity. Medium was removed and replaced with DMEM containing 0.5% FCS and 3 ng/ml bFGF (R&D Systems, Minneapolis, Minn., USA). Unstimulated controls received no bFGF. Cells were treated with concentrations of Arresten or endostatin ranging from 0.01 to 50 μg/ml. All wells received 1 μCurie of ^3H-thymidine at the time of treatment. After 24 hours, medium was removed and the wells were washed with PBS. Cells were extracted with 1N NaOH and added to a scintillation vial containing 4 ml of ScintiVerse II (Fisher Scientific, Pittsburgh, Pa., USA) solution. Thymidine incorporation was measured using a scintillation counter. The results are shown in FIGS. 3A and 3B, which are a pair of graphs showing incorporation of ^3H-thymidine into C-PAE cells treated with varying amounts of Arresten (FIG. 3A) or endostatin (FIG. 3B). […]

[2] = system: HUVECs; experiment: Endothelial cell migration, Boyden chamber; type: cell-based, human
Description: In the process of angiogenesis, endothelial cells not only proliferate but also migrate. Therefore, the effect of Canstatin on endothelial cell migration was assessed. The inhibitory effect of Canstatin and endostatin on FBS-induced chemotaxis was tested on human umbilical endothelial cells (HUVECs) using the Boyden chamber assay (Neuro-Probe, Inc., Cabin John, Md., USA). HUVECs cells were grown in M199 (Life Technologies/Gibco BRL, Gaithersburg, Md., USA) containing 10% FBS and 5 ng/ml DiC 18(3) living fluorescent stain (Molecular Probes, Inc., Eugene, Oreg., USA) overnight. After trypsinizing, washing and diluting cells in M199 containing 0.5% FBS, 60,000 cells were seeded in the upper chamber wells, together with or without Canstatin ([…]). M199 medium containing 2% FBS was placed in the lower chamber as a chemotactant. The cell-containing compartments were separated from the chemotactant with polycarbonate filters (Poretics Corp., Livermore, Calif., USA) of 8 μm pore size. […] Using a fluorescent high power field, several independent homogenous images were recorded by a digital SenSys™ camera operated with Image Processing Software PMIS (Roper Scientific/Photometrics, Tucson, Ariz., USA). Cells were counted by employing the OPTIMIZE 6.0 software-program (Media Cybernetics, Rochester, N.Y.) (Klemke, R. L. et al., 1994, J. Cell. Biol. 127:859-66).

[3] = system: HPE cells; experiment: Proliferation, methylene blue staining; type: cell-based, human
Description: In the methylene-blue staining method, 7000 cells were plated into each well of a 96-well plate, and treated as described above. Cells were then counted using the method of Oliver et al. (1989, J. Cell. Sci. 92:513-8). After 48 hours of treatment, all wells were washed with 100 μl of PBS, and the cells fixed with 10% formalin in neutral-buffered saline (Sigma Chemical Co., St. Louis, Mo., USA). The cells were then stained with 1% methylene blue (Sigma) in 0.01M borate buffer, pH 8.5. Wells were washed with 0.01M borate buffer, and the methylene blue extracted from the cells with 0.1N HCl/ethanol, and the absorbance measured in a microplate reader (Bio-Rad, Hercules, Calif., USA) at 655 nm. Polymyxin B (Sigma) at a final concentration of 5 μg/ml was used to inactivate endotoxin (Liu, S. et al., 1997, Clin. Biochem. 30:455-63).
Endothelial cell proliferation was performed by ^3H-thymidine incorporation or methylene blue staining as described above in Example 25. C-PAE cells (passages 2-4) were grown to confluence and kept contact inhibited for 48 hours. 786-O, PC-3 and WM-164 cells were used as non-endothelial controls, and were cultured as described in Example 25, above. HPE (human primary prostate epithelial cells) were cultured in keratinocyte-SFM supplemented with bovine pituitary and recombinant human EGF (Life Technologies/Gibco BRL, Gaithersburg, Md., USA). […]

[4] = system: MDA-MB435 tumors; experiment: MDA-MB435 breast cancer carcinoma orthotopic model (Example 41); type: in vivo; conditions: 5 mg or 20 mg per kilogram
[5] = system: PC-3 cells; experiment: MTT cell viability assay; type: cell-based, human; conditions: 0-50 μg/ml
Description: (§1) Cell viability was measured by MTT assay, as described above.
(§2) The effects of Tumstatin-44-131 and Tum-5-125-C-A on cell viability of C-PAE cells were not seen in control PC-3 and DU-145 cells, as shown in FIGS. 52C and 52D. […] The activity of Tumstatin-44-131 is therefore specific to endothelial cells.

[6] = system: DU-145 cells; experiment: MTT cell viability assay; type: cell-based; conditions: 0-50 μg/ml
Description: as §1, §2

B1: endostatin: tumor associated angiogenesis inhibitor used as comparator (protein, UniProt P39060 1572-1754, looked up)
Endostatin: HSHRDFQPVLHLVALNSPLSGGMRGIRGADFQCFQQARAVGLAGTFRAFLSSRLQDLYSIVRRADRAAVPIVNLKDELLFPSWEALFSGSEGPLKPGARIFSFDGKDVLRHPTWPQKSVWHGSDPNGRRLTESYCETWRTEAPSATGQASSLLGGRLLGQSAASCHHAYIVLCIENSFMTASK
modifications: Endostatin
[1]
  effect on proliferation: did not inhibit

B2: Canstatin: NC1 domain of the α2 chain of Type IV collagen (SEQ ID NO:6) (protein, listed as Homo sapiens)
chain: VSIGYLLVKHSQTDQEPMCPVGMNKLWSGYSLLYFEGQEKAHNQDLGLAGSCLARFSTMPFLYCNPGDVCYYASRNDKSYWLSTTAPLPMMPVAEDEIKPYISRCSVCEAPAIAIAVHSQDVSIPHCPAGWRSLWIGYSFLMHTAAGDEGGGQSLVSPGSCLEDFRATPFIECNGGRGTCHYYANKYSFWLTTIPEQSFQGSPSADTLKAGLIRTHISRCQVCMKNL
[2]
  concentration with significant effect on migration: 10 ng/mL

B3: Tumstatin: NC1 domain of the α3 chain of type IV collagen, residues 1-244 (SEQ ID NO:10) (protein, listed as Homo sapiens)
chain: GLKGKRGDSGSPATWTTRGFVFTRHSQTTAIPSCPEGTVPLYSGFSFLFVQGNQRAHGQDLGTLGSCLQRFTTMPFLFCNVNDVCNFASRNDYSYWLSTPALMPMNMAPITGRALEPYISRCTVCEGPAIAIAVHSQTTDIPPCPHGWISLWKGFSFIMFTSAGSEGTGQALASPGSCLEEFRASPFLECHGRGTCNYYSNSYSFWLASLNPERMFRKPIPSTVKAGELEKIISRCQVCMKKRH
[3]
  effect on proliferation of HPE cells: no inhibitory effects

B4: Tum-1: residues 54 to 244 of Tumstatin, lacking the N-terminal 53 amino acids (SEQ ID NO:22) (protein)
chain: QRAHGQDLGTLGSCLQRFTTMPFLFCNVNDVCNFASRNDYSYWLSTPALMPMNMAPITGRALEPYISRCTVCEGPAIAIAVHSQTTDIPPCPHGWISLWKGFSFIMFTSAGSEGTGQALASPGSCLEEFRASPFLECHGRGTCNYYSNSYSFWLASLNPERMFRKPIPSTVKAGELEKIISRCQVCMKKRH
modifications: Tum-1 (Tumstatin N-53) (amino acids 54-244 of SEQ ID NO10)
[4]
  anti-tumor activity: substantial anti-tumor activity

B5: Tumstatin-44-131: residues 44 to 131 of full-length Tumstatin (SEQ ID NO:33) (protein)
chain: FSFLFVQGNQRAHGQDLGTLGSCLQRFTTMPFLFCNVNDVCNFASRNDYSYWLSTPALMPMNMAPITGRALEPYISRCTVCEGPAIAI
modifications: Tumstatin-45-132 (amino acids 45-132 of SEQ ID NO10)
[5]
  effect on viability of PC-3 cells: not seen
[6]
  effect on viability of DU-145 cells: not seen
